Test results as given in article PMC11132685.

Experiments:
Assay in all cases: SEC-MALS; purified NACHOs; oligomeric state; conditions not given
[1] = molecular target: tetrabrachion-stabilised recombinant N2 NA (NACHO) of A/ANKARA/2396/2015 (not stated | influenza A virus (H3N2) A/ANKARA/2396/2015)
[2] = molecular target: tetrabrachion-stabilised recombinant N2 NA (NACHO) of A/BRISBANE/273/2016 (not stated | influenza A virus (H3N2) A/BRISBANE/273/2016)
[3] = molecular target: tetrabrachion-stabilised recombinant N2 NA (NACHO) of A/CATALONIA/9503S/2017 (not stated | influenza A virus (H3N2) A/CATALONIA/9503S/2017)
[4] = molecular target: tetrabrachion-stabilised recombinant N2 NA (NACHO) of A/HATAY/4990/2016 (not stated | influenza A virus (H3N2) A/HATAY/4990/2016)
[5] = molecular target: tetrabrachion-stabilised recombinant N2 NA (NACHO) of A/HELSINKI/823/2013 (not stated | influenza A virus (H3N2) A/HELSINKI/823/2013)
[6] = molecular target: tetrabrachion-stabilised recombinant N2 NA (NACHO) of A/HELSINKI/941/2013 (not stated | influenza A virus (H3N2) A/HELSINKI/941/2013)
[7] = molecular target: tetrabrachion-stabilised recombinant N2 NA (NACHO) of A/HONGKONG/4801/2014 (not stated | influenza A virus (H3N2) A/HONGKONG/4801/2014)
[8] = molecular target: tetrabrachion-stabilised recombinant N2 NA (NACHO) of A/OHIO/13/2017 (not stated | influenza A virus (H3N2) A/OHIO/13/2017)
[9] = molecular target: tetrabrachion-stabilised recombinant N2 NA (NACHO) of A/PARIS/2379/2014 (not stated | influenza A virus (H3N2) A/PARIS/2379/2014)
[10] = molecular target: tetrabrachion-stabilised recombinant N2 NA (NACHO) of A/PORTOALEGRE/LACENRS2376/2014 (not stated | influenza A virus (H3N2) A/PORTOALEGRE/LACENRS2376/2014)
[11] = molecular target: tetrabrachion-stabilised recombinant N2 NA (NACHO) of A/SINGAPORE/INFIMH160019/2016 (not stated | influenza A virus (H3N2) A/SINGAPORE/INFIMH160019/2016)
[12] = molecular target: tetrabrachion-stabilised recombinant N2 NA (NACHO) of A/STOCKHOLM/14/2012 (not stated | influenza A virus (H3N2) A/STOCKHOLM/14/2012)
[13] = molecular target: tetrabrachion-stabilised recombinant N2 NA (NACHO) of A/SWEDEN/3/2017 (not stated | influenza A virus (H3N2) A/SWEDEN/3/2017)
[14] = molecular target: tetrabrachion-stabilised recombinant N2 NA (NACHO) of A/TEXAS/50/2012 (not stated | influenza A virus (H3N2) A/TEXAS/50/2012)
[15] = molecular target: tetrabrachion-stabilised recombinant N2 NA (NACHO) of A/VICTORIA/361/2011 (not stated | influenza A virus (H3N2) A/VICTORIA/361/2011)

tetrabrachion-stabilised recombinant N2 NA (NACHO) of A/ANKARA/2396/2015 (enzyme)
stoichiometry N [1]: 4

tetrabrachion-stabilised recombinant N2 NA (NACHO) of A/BRISBANE/273/2016 (enzyme)
stoichiometry N [2]: 4

tetrabrachion-stabilised recombinant N2 NA (NACHO) of A/CATALONIA/9503S/2017 (enzyme)
stoichiometry N [3]: 4

tetrabrachion-stabilised recombinant N2 NA (NACHO) of A/HATAY/4990/2016 (enzyme)
stoichiometry N [4]: 4

tetrabrachion-stabilised recombinant N2 NA (NACHO) of A/HELSINKI/823/2013 (enzyme)
stoichiometry N [5]: 4

tetrabrachion-stabilised recombinant N2 NA (NACHO) of A/HELSINKI/941/2013 (enzyme)
stoichiometry N [6]: 4

tetrabrachion-stabilised recombinant N2 NA (NACHO) of A/HONGKONG/4801/2014 (enzyme)
stoichiometry N [7]: 4

tetrabrachion-stabilised recombinant N2 NA (NACHO) of A/OHIO/13/2017 (enzyme)
stoichiometry N [8]: 4

tetrabrachion-stabilised recombinant N2 NA (NACHO) of A/PARIS/2379/2014 (enzyme)
stoichiometry N [9]: 4

tetrabrachion-stabilised recombinant N2 NA (NACHO) of A/PORTOALEGRE/LACENRS2376/2014 (enzyme)
stoichiometry N [10]: 4

tetrabrachion-stabilised recombinant N2 NA (NACHO) of A/SINGAPORE/INFIMH160019/2016 (enzyme)
stoichiometry N [11]: 4

tetrabrachion-stabilised recombinant N2 NA (NACHO) of A/STOCKHOLM/14/2012 (enzyme)
stoichiometry N [12]: 4

tetrabrachion-stabilised recombinant N2 NA (NACHO) of A/SWEDEN/3/2017 (enzyme)
stoichiometry N [13]: 4

tetrabrachion-stabilised recombinant N2 NA (NACHO) of A/TEXAS/50/2012 (enzyme)
stoichiometry N [14]: 4

tetrabrachion-stabilised recombinant N2 NA (NACHO) of A/VICTORIA/361/2011 (enzyme)
stoichiometry N [15]: 4
